Laboratory results reported in the supplement of paper PMC11246515.
± gives the standard deviation of the averaged measurements.

Assay: total protein half-life in vivo (active degradation + dilution); higher = more stable protein
[1] = E. coli NCM3722 delta-clpP, growth: N-lim chemostat, doubling time 6 h
[2] = E. coli NCM3722 delta-hslV, growth: N-lim chemostat, doubling time 6 h
[3] = E. coli NCM3722 delta-lon, growth: N-lim chemostat, doubling time 6 h
[4] = wild type E. coli NCM3722, growth: C-lim chemostat, doubling time 6 h
[5] = wild type E. coli NCM3722, growth: C-lim chemostat, doubling time 12 h
[6] = wild type E. coli NCM3722, growth: N-lim chemostat, doubling time 6 h
[7] = wild type E. coli NCM3722, growth: N-lim chemostat, doubling time 12 h
[8] = wild type E. coli NCM3722, growth: P-lim chemostat, doubling time 6 h
[9] = wild type E. coli NCM3722, growth: P-lim chemostat, doubling time 12 h
[10] = E. coli NCM3722 delta-clpP delta-lon delta-hslV, growth: N-lim chemostat, doubling time 6 h
[11] = E. coli NCM3722 delta-smpB, growth: N-lim chemostat, doubling time 6 h
[12] = wild type E. coli NCM3722, growth: C-lim chemostat, doubling time 3 h

Sequence	total protein half-life in vivo [1]	total protein half-life in vivo [2]	total protein half-life in vivo [3]	total protein half-life in vivo [4]	total protein half-life in vivo [5]	total protein half-life in vivo [6]	total protein half-life in vivo [7]	total protein half-life in vivo [8]	total protein half-life in vivo [9]	total protein half-life in vivo [10]	total protein half-life in vivo [11]	total protein half-life in vivo [12]
MGSTRKGMLNVLIAAVLWGSSGVCAQYIMEQSQMSSQFLTMTRLIFAGLILLTLSFVHGDKIFSIINNHKDAISLLIFSVVGALTVQLTFLLTIEKSNAATATVLQFLSPTIIVAWFSLVRKSRPGILVFCAILTSLVGTFLLVTHGNPTSLSISPAALFWGIASAFAAAFYTTYPSTLIARYGTLPVVGWSMLIGGLILLPFYARQGTNFVVNGSLILAFFYLVVIGTSLTFSLYLKGAQLIGGPKASILSCAEPLSSALLSLLLLGITFTLPDWLGTLLILSSVILISMDSRRRARKINRPARHK	6.18 h	4.72 ± 1.2 h	5.26 h	6.04 h	13.3 h	5.29 h	12.8 h	5.97 h	12 ± 0.74 h	–	–	–
MGSTSSLYAAIDLGSNSFHMLVVREVAGSIQTLTRIKRKVRLAAGLNSENALSNEAMERGWQCLRLFAERLQDIPPSQIRVVATATLRLAVNAGDFIAKAQEILGCPVQVISGEEEARLIYQGVAHTTGGADQRLVVDIGGASTELVTGTGAQTTSLFSLSMGCVTWLERYFADRNLGQENFDAAEKAAREVLRPVADELRYHGWKVCVGASGTVQALQEIMMAQGMDERITLEKLQQLKQRAIHCGRLEELEIDGLTLERALVFPSGLAILIAIFTELNIQCMTLAGGALREGLVYGMLHLAVEQDIRSRTLRNIQRRFMIDIDQAQRVAKVAANFFDQVENEWHLEAISRDLLISACQLHEIGLSVDFKQAPQHAAYLVRNLDLPGFTPAQKKLLATLLLNQTNPVDLSSLHQQNAVPPRVAEQLCRLLRLAIIFASRRRDDLVPEMTLQANHELLTLTLPQGWLTQHPLGKEIIAQESQWQSYVHWPLEVH	3.91 ± 0.1 h	3.77 ± 0.53 h	3.75 ± 0.87 h	5.11 ± 0.2 h	9.31 ± 0.75 h	3.94 ± 0.33 h	5.6 ± 0.23 h	5.28 ± 1 h	11.3 ± 0.41 h	4.11 ± 0.81 h	3.64 ± 0.35 h	2.92 ± 0.24 h
MGTTKHSKLLILGSGPAGYTAAVYAARANLQPVLITGMEKGGQLTTTTEVENWPGDPNDLTGPLLMERMHEHATKFETEIIFDHINKVDLQNRPFRLNGDNGEYTCDALIIATGASARYLGLPSEEAFKGRGVSACATCDGFFYRNQKVAVIGGGNTAVEEALYLSNIASEVHLIHRRDGFRAEKILIKRLMDKVENGNIILHTNRTLEEVTGDQMGVTGVRLRDTQNSDNIESLDVAGLFVAIGHSPNTAIFEGQLELENGYIKVQSGIHGNATQTSIPGVFAAGDVMDHIYRQAITSAGTGCMAALDAERYLDGLADAK [P0A9P4]	3.95 ± 0.56 h	3.57 ± 0.13 h	3.954 ± 0.035 h	5.74 ± 0.6 h	10.2 ± 1.8 h	3.8 ± 0.19 h	6.33 ± 0.39 h	5.05 ± 0.65 h	10.7 ± 0.32 h	4.04 ± 0.12 h	3.71 ± 0.12 h	3.16 ± 0.09 h
MGYLNNVTGYREDLLANRAIVKHGNFALLTPDGLVKNIIPGFENCDATILSTPKLGASFVDYLVTLHQNGGNQQGFGGEGIETFLYVISGNITAKAEGKTFALSEGGYLYCPPGSLMTFVNAQAEDSQIFLYKRRYVPVEGYAPWLVSGNASELERIHYEGMDDVILLDFLPKELGFDMNMHILSFAPGASHGYIETHVQEHGAYILSGQGVYNLDNNWIPVKKGDYIFMGAYSLQAGYGVGRGEAFSYIYSKDCNRDVEI	4.57 ± 0.21 h	4.56 ± 0.21 h	4.35 ± 0.076 h	6.13 ± 0.5 h	10.8 ± 1.2 h	4.4 ± 0.1 h	7 ± 0.45 h	5.21 ± 0.26 h	11.1 ± 0.86 h	4.66 ± 0.65 h	4.52 ± 0.48 h	–
MHAYLHCLSHSPLVGYVDPAQEVLDEVNGVIASARERIAAFSPELVVLFAPDHYNGFFYDVMPPFCLGVGATAIGDFGSAAGELPVPVELAEACAHAVMKSGIDLAVSYCMQVDHGFAQPLEFLLGGLDKVPVLPVFINGVATPLPGFQRTRMLGEAIGRFTSTLNKRVLFLGSGGLSHQPPVPELAKADAHMRDRLLGSGKDLPASERELRQQRVISAAEKFVEDQRTLHPLNPIWDNQFMTLLEQGRIQELDAVSNEELSAIAGKSTHEIKTWVAAFAAISAFGNWRSEGRYYRPIPEWIAGFGSLSARTEN [P0ABR9]	–	–	–	–	–	–	–	–	–	5.32 h	–	–
MHDANIRVAIAGAGGRMGRQLIQAALALEGVQLGAALEREGSSLLGSDAGELAGAGKTGVTVQSSLDAVKDDFDVFIDFTRPEGTLNHLAFCRQHGKGMVIGTTGFDEAGKQAIRDAAADIAIVFAANFSVGVNVMLKLLEKAAKVMGDYTDIEIIEAHHRHKVDAPSGTALAMGEAIAHALDKDLKDCAVYSREGHTGERVPGTIGFATVRAGDIVGEHTAMFADIGERLEITHKASSRMTFANGAVRSALWLSGKESGLFDMRDVLDLNNL	4.89 ± 0.007 h	5.04 ± 0.21 h	5.38 ± 0.62 h	6.1 ± 0.19 h	12 ± 0.68 h	5.092 ± 0.023 h	9.28 ± 0.75 h	5.71 ± 0.34 h	12.5 ± 1.2 h	5.49 ± 0.1 h	4.76 ± 0.23 h	2.91 ± 0.068 h
MHELSLCQSAVEIIQRQAEQHDVKRVTAVWLEIGALSCVEESAVRFSFEIVCHGTVAQGCDLHIVYKPAQAWCWDCSQVVEIHQHDAQCPLCHGERLRVDTGDSLIVKSIEVE [P0A703]	3.51 h	–	3.49 ± 0.32 h	–	9.8 h	3.97 ± 0.6 h	5.27 ± 1.4 h	3.77 h	8.0989 ± 0.006 h	4.94 ± 1.4 h	3.57 h	–
